In paper PMC3481545:

How the values were obtained:
Test in all cases: SPR
BMP-7 = BMP-7 (UniProt P18075)
Activin = Activin (UniProt P08476)
GDF-5 = GDF-5 (UniProt P43026)
Sequence of GDF-5 (P43026 382-501): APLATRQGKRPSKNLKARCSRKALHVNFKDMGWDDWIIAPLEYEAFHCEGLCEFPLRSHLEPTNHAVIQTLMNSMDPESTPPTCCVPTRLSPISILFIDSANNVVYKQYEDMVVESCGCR

Sequence of BMP-7 (P18075 293-431): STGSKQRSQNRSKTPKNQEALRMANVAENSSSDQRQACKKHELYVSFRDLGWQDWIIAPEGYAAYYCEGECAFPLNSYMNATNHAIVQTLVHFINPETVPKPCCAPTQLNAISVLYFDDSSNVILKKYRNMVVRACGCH

Row | Substance | Kd (BMP-7) [µM] | Kd (Activin) [µM] | Kd (GDF-5) [µM]
1 | AΔA: ActR-IIB ECD with its A-loop deleted (domain or fragment) | 30 | > 1300 | > 1300
2 | BΔB: BMPR-II ECD with its A-loop deleted (from UniProt Q13873 26-150) (domain or fragment) | 27 | 94 | > 1300
3 | human recombinant ActR-IIB ECD, wild type (from UniProt Q13705 19-134) (domain or fragment) | 16 | – | > 1300
